Results published in the Immune Epitope Database (IEDB).
One block for each sequence: values may come before it.

Legend:
Assay in all cases: IEDB peptide-MHC binding, purified MHC/competitive/radioactivity; filed as Kd, often an IC50 or EC50 that approximates it; ≥ and ≤ were set here for values at or beyond the usual limits of such assays
HLA-A*02:06 = biological target: HLA-A*02:06
HLA-A*02:02 = biological target: HLA-A*02:02
HLA-A*02:03 = biological target: HLA-A*02:03
HLA-A*03:01 = biological target: HLA-A*03:01
HLA-A*11:01 = biological target: HLA-A*11:01
HLA-A*31:01 = biological target: HLA-A*31:01
HLA-A*33:01 = biological target: HLA-A*33:01
HLA-A*68:01 = biological target: HLA-A*68:01
[1] = source organism: Dengue virus 2 Jamaica/1409/1983
[2] = source organism: Vaccinia virus WR
[3] = source organism: Lymphocytic choriomeningitis virus (strain Armstrong)
[4] = source organism: SARS coronavirus Tor2
[5] = source organism: Mammarenavirus lassaense
[6] = source organism: Mammarenavirus guanaritoense
[7] = source organism: Mammarenavirus machupoense

Sequence: AILLVAVSFV
Kd (HLA-A*02:06; [1]): 60.9 nM

Sequence: IVVPVIDRL
Kd (HLA-A*02:02; [2]): 144 nM
Kd (HLA-A*02:03; [2]): 226 nM
Kd (HLA-A*02:06; [2]): 30.9 nM

Sequence: GTMPSLTMAC
Kd (HLA-A*02:02; [3]): ≥ 25200 nM
Kd (HLA-A*02:03; [3]): 16300 nM
Kd (HLA-A*02:06; [3]): 12100 nM

Sequence: FTEEQQQSFM
Kd (HLA-A*02:02; [2]): 1120 nM
Kd (HLA-A*02:03; [2]): 1750 nM
Kd (HLA-A*02:06; [2]): 833 nM

Sequence: ELTSNCTRT
Kd (HLA-A*02:02; [2]): ≥ 77800 nM
Kd (HLA-A*02:03; [2]): ≥ 78100 nM
Kd (HLA-A*02:06; [2]): ≥ 46500 nM

Sequence: YVSVMNFIPI
Kd (HLA-A*02:02; [2]): 341 nM
Kd (HLA-A*02:03; [2]): 152 nM
Kd (HLA-A*02:06; [2]): 0.109 nM

Sequence: LIVNSVLLFL
Kd (HLA-A*02:02; [4]): 3.67 nM
Kd (HLA-A*02:03; [4]): 90.4 nM
Kd (HLA-A*02:06; [4]): 10.8 nM

Sequence: KVLSIMAFIL
Kd (HLA-A*02:02; [2]): 2.32 nM
Kd (HLA-A*02:03; [2]): 684 nM
Kd (HLA-A*02:06; [2]): 19.1 nM

Sequence: RLQMAGVEV
Kd (HLA-A*02:02; [2]): 326 nM
Kd (HLA-A*02:03; [2]): 531 nM
Kd (HLA-A*02:06; [2]): 4110 nM

Sequence: LIKTLSPAHL
Kd (HLA-A*02:02; [2]): 1850 nM
Kd (HLA-A*02:03; [2]): 356 nM
Kd (HLA-A*02:06; [2]): 10200 nM

Sequence: AIKSNNHLT
Kd (HLA-A*02:02; [2]): ≥ 50700 nM
Kd (HLA-A*02:03; [2]): ≥ 28600 nM
Kd (HLA-A*02:06; [2]): ≥ 77100 nM

Sequence: LNCLSLLLSV
Kd (HLA-A*02:02; [5]): 123 nM
Kd (HLA-A*02:03; [5]): 230 nM
Kd (HLA-A*02:06; [5]): 250 nM

Sequence: IVSHLRASTT
Kd (HLA-A*02:02; [2]): 139 nM
Kd (HLA-A*02:03; [2]): 111 nM
Kd (HLA-A*02:06; [2]): 173 nM

Sequence: LILSNKLLYA
Kd (HLA-A*02:02; [2]): 468 nM
Kd (HLA-A*02:03; [2]): 122 nM
Kd (HLA-A*02:06; [2]): 36.1 nM

Sequence: VAKCCSKTNT
Kd (HLA-A*02:02; [2]): 14700 nM
Kd (HLA-A*02:03; [2]): ≥ 21700 nM
Kd (HLA-A*02:06; [2]): ≥ 40800 nM

Sequence: ILISLINSLV
Kd (HLA-A*02:02; [2]): 22.9 nM
Kd (HLA-A*02:03; [2]): 3.08 nM
Kd (HLA-A*02:06; [2]): 151 nM

Sequence: SAGFTATICL
Kd (HLA-A*02:02; [2]): 6900 nM
Kd (HLA-A*02:03; [2]): ≥ 20100 nM
Kd (HLA-A*02:06; [2]): 2410 nM

Kd (HLA-A*02:02; source organism: Homo sapiens): 0.423 nM
Kd (HLA-A*02:03; source organism: Homo sapiens): 8.18 nM
Sequence: QLFNHTMFIL

Sequence: QIFNIISYII
Kd (HLA-A*02:02; [2]): 288 nM
Kd (HLA-A*02:03; [2]): 206 nM
Kd (HLA-A*02:06; [2]): 743 nM

Sequence: LTLKGMSYV
Kd (HLA-A*02:06; source organism: Dengue virus 1 Singapore/S275/1990): 7 nM

Sequence: ELENKKVEYV
Kd (HLA-A*02:02; [2]): ≥ 21400 nM
Kd (HLA-A*02:03; [2]): 3650 nM
Kd (HLA-A*02:06; [2]): ≥ 69800 nM

Sequence: GVPHSVFIA
Kd (HLA-A*02:02; [2]): 5370 nM
Kd (HLA-A*02:03; [2]): 3630 nM
Kd (HLA-A*02:06; [2]): 101 nM

Sequence: EAFETQSGAL
Kd (HLA-A*02:02; [2]): 8560 nM
Kd (HLA-A*02:03; [2]): 995 nM
Kd (HLA-A*02:06; [2]): 15000 nM

Sequence: YVIGLLPQS
Kd (HLA-A*02:02; [6]): ≥ 77700 nM
Kd (HLA-A*02:03; [6]): ≥ 78100 nM
Kd (HLA-A*02:06; [6]): ≥ 48000 nM

Sequence: AVANCVRNL
Kd (HLA-A*02:02; [2]): 66.3 nM
Kd (HLA-A*02:03; [2]): 114 nM
Kd (HLA-A*02:06; [2]): 1380 nM

Sequence: PLSPDTCLLA
Kd (HLA-A*02:02; [2]): 11200 nM
Kd (HLA-A*02:03; [2]): 9310 nM
Kd (HLA-A*02:06; [2]): 19900 nM

Sequence: TQSGALEVLM
Kd (HLA-A*02:02; [2]): 836 nM
Kd (HLA-A*02:03; [2]): 15400 nM
Kd (HLA-A*02:06; [2]): 2230 nM

Sequence: PLVAGGLLTV
Kd (HLA-A*02:03; [1]): 35.1 nM

Sequence: CTDPSERVFK
Kd (HLA-A*03:01; [2]): 543 nM
Kd (HLA-A*11:01; [2]): 10 nM
Kd (HLA-A*31:01; [2]): 2930 nM
Kd (HLA-A*33:01; [2]): ≥ 54.5 µM
Kd (HLA-A*68:01; [2]): 56 nM

Sequence: MATMLEYVRY
Kd (HLA-A*03:01; [2]): 588 nM
Kd (HLA-A*11:01; [2]): 21.8 nM
Kd (HLA-A*31:01; [2]): 1620 nM
Kd (HLA-A*33:01; [2]): 13.5 µM
Kd (HLA-A*68:01; [2]): 116 nM

Sequence: ESRDRKWLY
Kd (HLA-A*03:01; [2]): ≥ 51200 nM
Kd (HLA-A*11:01; [2]): 10300 nM
Kd (HLA-A*31:01; [2]): ≥ 61000 nM
Kd (HLA-A*33:01; [2]): 10.1 µM
Kd (HLA-A*68:01; [2]): 3930 nM

Sequence: ALEYLSELK
Kd (HLA-A*03:01; [2]): 988 nM
Kd (HLA-A*11:01; [2]): 178 nM
Kd (HLA-A*31:01; [2]): 8550 nM
Kd (HLA-A*33:01; [2]): ≥ 77.7 µM
Kd (HLA-A*68:01; [2]): 3480 nM

Sequence: LLDSYFVVK
Kd (HLA-A*03:01; [4]): 40.3 nM
Kd (HLA-A*11:01; [4]): 47.2 nM
Kd (HLA-A*31:01; [4]): 1270 nM
Kd (HLA-A*33:01; [4]): 12.7 µM
Kd (HLA-A*68:01; [4]): 2060 nM

Sequence: LLFVVEVVDK
Kd (HLA-A*03:01; [4]): 4390 nM
Kd (HLA-A*11:01; [4]): 3050 nM
Kd (HLA-A*31:01; [4]): 6560 nM
Kd (HLA-A*33:01; [4]): 6.08 µM
Kd (HLA-A*68:01; [4]): 1330 nM

Sequence: TLSPAHLINK
Kd (HLA-A*03:01; [2]): 2.05 nM
Kd (HLA-A*11:01; [2]): 1.29 nM
Kd (HLA-A*31:01; [2]): 168 nM
Kd (HLA-A*33:01; [2]): 11.4 µM
Kd (HLA-A*68:01; [2]): 120 nM

Sequence: QSLCFLLTQK
Kd (HLA-A*03:01; [4]): 6.2 nM
Kd (HLA-A*11:01; [4]): 10.8 nM
Kd (HLA-A*31:01; [4]): 54.2 nM
Kd (HLA-A*33:01; [4]): 1.47 µM
Kd (HLA-A*68:01; [4]): 63.8 nM

Sequence: AAISDYDYY
Kd (HLA-A*03:01; [4]): 698 nM
Kd (HLA-A*11:01; [4]): 1100 nM
Kd (HLA-A*31:01; [4]): 17500 nM
Kd (HLA-A*33:01; [4]): ≥ 77.7 µM
Kd (HLA-A*68:01; [4]): 4810 nM

Sequence: TMCTEETKR
Kd (HLA-A*03:01; [2]): ≥ 78000 nM
Kd (HLA-A*11:01; [2]): ≥ 77900 nM
Kd (HLA-A*31:01; [2]): 2980 nM
Kd (HLA-A*33:01; [2]): 12.4 µM
Kd (HLA-A*68:01; [2]): 121 nM

Sequence: QCWRSFLNK
Kd (HLA-A*03:01; [5]): 567 nM
Kd (HLA-A*11:01; [5]): 4950 nM
Kd (HLA-A*31:01; [5]): 880 nM
Kd (HLA-A*33:01; [5]): 0.743 µM
Kd (HLA-A*68:01; [5]): 13600 nM

Sequence: LTMQRLLANH
Kd (HLA-A*03:01; [7]): 876 nM
Kd (HLA-A*11:01; [7]): 1850 nM
Kd (HLA-A*31:01; [7]): 1860 nM
Kd (HLA-A*33:01; [7]): 8.44 µM
Kd (HLA-A*68:01; [7]): 1610 nM

Sequence: PSAEDNYLAK
Kd (HLA-A*03:01; [2]): ≥ 32200 nM
Kd (HLA-A*11:01; [2]): 8.64 nM
Kd (HLA-A*31:01; [2]): ≥ 20300 nM
Kd (HLA-A*33:01; [2]): 4.12 µM
Kd (HLA-A*68:01; [2]): 5710 nM

Sequence: SCQGSDDIR
Kd (HLA-A*03:01; [3]): ≥ 78000 nM
Kd (HLA-A*11:01; [3]): ≥ 77900 nM
Kd (HLA-A*31:01; [3]): ≥ 33900 nM
Kd (HLA-A*33:01; [3]): ≥ 51.4 µM
Kd (HLA-A*68:01; [3]): ≥ 21800 nM

Sequence: SAVFKDSFLR
Kd (HLA-A*03:01; [2]): 664 nM
Kd (HLA-A*11:01; [2]): 45.9 nM
Kd (HLA-A*31:01; [2]): 23.9 nM
Kd (HLA-A*33:01; [2]): 0.372 µM
Kd (HLA-A*68:01; [2]): 18.2 nM

Sequence: DVKVLAARLK
Kd (HLA-A*03:01; [2]): 1160 nM
Kd (HLA-A*11:01; [2]): 2350 nM
Kd (HLA-A*31:01; [2]): 3000 nM
Kd (HLA-A*33:01; [2]): 5.07 µM
Kd (HLA-A*68:01; [2]): 592 nM
